Experimental data: patent US20220127350A1 (NUMAB THERAPEUTICS, published 2022)

T1: human IL-17D (human, UniProt Q8TAD2 16-202, limits assumed)
T1 sequence: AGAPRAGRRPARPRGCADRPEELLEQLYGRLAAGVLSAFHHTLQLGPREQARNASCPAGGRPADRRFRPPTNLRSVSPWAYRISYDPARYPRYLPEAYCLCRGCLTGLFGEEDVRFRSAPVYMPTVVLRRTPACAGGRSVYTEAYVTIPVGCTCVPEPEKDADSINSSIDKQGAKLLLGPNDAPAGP

T2: human IL-17F (human, UniProt Q96PD4 31-163)
T2 construct: Peprotech Cat. No. 200-25 in the direct ELISA
T2 sequence: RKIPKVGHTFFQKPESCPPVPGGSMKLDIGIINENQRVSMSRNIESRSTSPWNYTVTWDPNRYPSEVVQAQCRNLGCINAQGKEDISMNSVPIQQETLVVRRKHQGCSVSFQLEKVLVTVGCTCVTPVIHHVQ

T3: human IL-17E (human, UniProt Q9H293 33-177)
T3 construct: also called IL-25
T3 sequence: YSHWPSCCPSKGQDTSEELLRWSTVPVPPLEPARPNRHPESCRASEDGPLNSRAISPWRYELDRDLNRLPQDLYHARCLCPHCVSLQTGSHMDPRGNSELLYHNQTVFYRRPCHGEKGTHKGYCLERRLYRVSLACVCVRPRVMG

T4: human IL-17C (human, UniProt Q9P0M4 19-197)
T4 sequence: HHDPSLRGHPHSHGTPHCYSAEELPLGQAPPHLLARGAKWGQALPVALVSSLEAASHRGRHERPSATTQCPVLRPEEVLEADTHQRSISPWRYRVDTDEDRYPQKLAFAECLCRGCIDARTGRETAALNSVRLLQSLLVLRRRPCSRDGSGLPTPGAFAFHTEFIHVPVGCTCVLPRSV

T5: human IL-17B (human, UniProt Q9UHF5 21-180)
T5 sequence: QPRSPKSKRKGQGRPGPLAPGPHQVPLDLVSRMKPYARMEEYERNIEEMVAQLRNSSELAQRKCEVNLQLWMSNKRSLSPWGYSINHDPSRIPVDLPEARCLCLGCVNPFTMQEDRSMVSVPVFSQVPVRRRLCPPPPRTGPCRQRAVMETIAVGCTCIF


How the values were obtained:
cynomolgus monkey IL-17A [1] = molecular target: T6, cynomolgus monkey IL-17A (Macaca fascicularis (cynomolgus monkey)); test: SPR (Biacore T200)
T6 construct: also called cyno IL-17A; cyno IL17A
Method: (§1) After each analyte injection cycle the CAP sensor chip was regenerated and new antigen was captured. The scFvs were injected as analyte using a dose response multi-cycle kinetic assay with concentrations of the analyte ranging from 0.35 to 90 nM diluted in running buffer. Obtained sensorgrams were fitted using the 1:1 binding model. In addition, the scFvs were analyzed in an alternative SPR assay setup (“direct setup”).

human IL-17A [2] = molecular target: T7, human IL-17A (human, UniProt Q16552 24-155, limits assumed); test: cell-based or functional assay
human IL-17D [3] = molecular target: T1, human IL-17D; test: competition ELISA: scFv A1 coated, binding of biotinylated IL-17A detected, unlabeled IL-17D titrated as competitor [I) A]
From the text: (§2) For this purpose, the scFvs were coated on a 96-well ELISA plate.

human IL-17F [4] = molecular target: T2, human IL-17F; test: competition ELISA: scFv A1 coated, binding of biotinylated IL-17A detected, unlabeled IL-17F titrated as competitor [I) A]
From the text: as §2

human IL-17A [5] = molecular target: T7, human IL-17A; test: SPR (Biacore T200), direct setup: IL-17A amine-coupled on CM5, scFv as analyte
Method: as §1

cynomolgus monkey IL-17A [6] = molecular target: T6, cynomolgus monkey IL-17A; test: SPR (Biacore T200), cynomolgus IL-17A, scFv as analyte
Method: as §1

human IL-17E [7] = molecular target: T3, human IL-17E; test: competition ELISA: scFv A1 coated, binding of biotinylated IL-17A detected, unlabeled IL-17E titrated as competitor [I) A]
From the text: as §2

human IL-17C [8] = molecular target: T4, human IL-17C; test: competition ELISA: scFv A1 coated, binding of biotinylated IL-17A detected, unlabeled IL-17C titrated as competitor [I) B]
From the text: as §2

human IL-17A [9] = molecular target: T7, human IL-17A; test: SPR (Biacore T200), capture setup: biotinylated IL-17A captured, scFv as analyte
Method: as §1

human IL-17A [10] = molecular target: T7, human IL-17A; test: competitive ELISA: IL-17RA coated, biotinylated IL-17A preincubated with scFv
Method: Finally, Tetramethylbenzidin solution (KPL, Cat. No. 53-00-00) was added to develop the plate for 5 to 10 minutes and the reaction was stopped with 1 M HCl. The plate was read using a microtiter plate reader (Infinity reader M200 Pro, Tecan) at a wavelength of 450 nm and 570 nm (reference wavelength).

human IL-17B [11] = molecular target: T5, human IL-17B; test: competition ELISA: scFv A1 coated, binding of biotinylated IL-17A detected, unlabeled IL-17B titrated as competitor [I) B]
From the text: as §2

human IL-17D [12] = molecular target: T1, human IL-17D; test: competition ELISA: scFv PRO571 coated, binding of biotinylated IL-17A detected, unlabeled IL-17D titrated as competitor [II) A]
From the text: as §2

human IL-17C [13] = molecular target: T4, human IL-17C; test: competition ELISA: scFv coated, biotinylated IL-17A, unlabeled cytokine titrated
From the text: as §2

human IL-17F [14] = molecular target: T2, human IL-17F; test: as above
From the text: as §2

human IL-17E [15] = molecular target: T3, human IL-17E; test: competition ELISA: scFv PRO571 coated, binding of biotinylated IL-17A detected, unlabeled IL-17E titrated as competitor [II) A]
From the text: as §2

human IL-17B [16] = molecular target: T5, human IL-17B; test: competition ELISA: scFv PRO571 coated, binding of biotinylated IL-17A detected, unlabeled IL-17B titrated as competitor [II) B]
From the text: as §2

human IL-17E [17] = molecular target: T3, human IL-17E; test: competition ELISA: scFv PRO592 coated, binding of biotinylated IL-17A detected, unlabeled IL-17E titrated as competitor [II) C]
From the text: as §2

human IL-17D [18] = molecular target: T1, human IL-17D; test: competition ELISA: scFv PRO592 coated, binding of biotinylated IL-17A detected, unlabeled IL-17D titrated as competitor [II) C]
From the text: as §2

human IL-17F [19] = molecular target: T2, human IL-17F; test: competition ELISA: scFv PRO592 coated, binding of biotinylated IL-17A detected, unlabeled IL-17F titrated as competitor [II) C]
From the text: as §2

human IL-17B [20] = molecular target: T5, human IL-17B; test: competition ELISA: scFv PRO592 coated, binding of biotinylated IL-17A detected, unlabeled IL-17B titrated as competitor [II) D]
From the text: as §2

human IL-17C [21] = molecular target: T4, human IL-17C; test: competition ELISA: scFv PRO592 coated, binding of biotinylated IL-17A detected, unlabeled IL-17C titrated as competitor [II) D]
From the text: as §2

KD, cyno/KD, human (cynomolgus monkey IL-17A [1])	IC50 in HT-29 assay, GRO-α secretion (human IL-17A [2]) [ng/mL]	Kd (human IL-17A [5]) [nM]	koff (human IL-17A [5]) [s⁻¹]	kon (human IL-17A [5]) [M⁻¹ s⁻¹]	Kd (cynomolgus monkey IL-17A [6]) [nM]	koff (cynomolgus monkey IL-17A [6]) [s⁻¹]	kon (cynomolgus monkey IL-17A [6]) [M⁻¹ s⁻¹]	Kd (human IL-17A [9]) [nM]	koff (human IL-17A [9]) [s⁻¹]	kon (human IL-17A [9]) [M⁻¹ s⁻¹]	IC50 (human IL-17A [10]) [ng/mL]	Binder	other results
3.66	0.2	0.139	0.000102	737000	0.905	0.000261	288000	0.247	0.000112	455000	2	A1 (humanized anti-IL-17A scFv, CDR graft of 27-07-G02) (scFv, VL-linker-VH; also called 27-07-G02-sc01; 27_07_G02_sc01) scFv: DIQMTQSPSSLSASVGDRVTITCQASQTINYWLAWYQQKPGKAPKLLIYRASTLASGVPSRFSGSGSGTDFTLTISSLQPEDFATYYCQNYYYSTSRSYGFGGGTKLTVLGGGGGSGGGGSGGGGSGGGGSEVQLVESGGGLVQPGGSLRLSCAASGFSFSSDYWMCWVRQAPGKGLEWIGCIYAGDVDDTDYASWARGRFTISRDNSKNTVYLQMNSLRAEDTAVYYCARVDGFDITYFDLWGQGTLVTVSS	binding result (human IL-17D [3]): no binding (tested: about 100000 ng/mL on the axis); binding result (human IL-17F [4]): no binding (tested: about 20000 ng/mL); binding result (human IL-17E [7]): no binding (tested: about 20000 ng/mL); binding result (human IL-17C [8]): no binding (tested: about 100000 ng/mL); binding result (human IL-17B [11]): no binding (tested: about 100000 ng/mL)
0.28	0.1	0.0403	4.55e-05	1.13e+06	0.0331	3.88e-05	1.17e+06	0.119	0.000144	1.21e+06	1.8	PRO571 (humanized anti-IL-17A scFv, CDR graft of 27-31-C04) (scFv, VL-linker-VH; also called 27-31-C04-sc01; 27_31_C04_sc01) scFv: DIQMTQSPSSLSASVGDRVTITCQASESIYRYLSWYQQKPGKAPKLLIYLASTLTSGVPSRFSGSGSGTDFTLTISSLQPEDFATYYCQSNFGTASTTYYNTFGGGTKLTVLGGGGGSGGGGSGGGGSGGGGSEVQLVESGGGLVQPGGSLRLSCAASGFSFSGFYYMCWVRQAPGKGLEWIGCIDTGDGTTYYASWAKGRFTISRDNSKNTVYLQMNSLRAEDTAVYYCARDAAYGGYAYPAHGMDLWGQGTLVTVSS	binding result (human IL-17D [12]): no binding (tested: about 500000 ng/mL); binding result (human IL-17C [13]): no binding (tested: 100000 ng/ml); binding result (human IL-17F [14]): no binding (tested: 20000 ng/ml); binding result (human IL-17E [15]): no binding (tested: about 20000 ng/mL); binding result (human IL-17B [16]): no binding (tested: about 100000 ng/mL)
0.44	0.13	0.0376	4.07e-05	1.08e+06	0.16	5.38e-05	336000	0.367	0.000142	387000	0.9	PRO592 (humanized anti-IL-17A scFv, STR graft of 27-31-C04) (scFv, VL-linker-VH; also called 27-31-C04-sc02; 27_31_C04_sc02) scFv: DIQMTQSPSSLSASVGDRVTITCQASESIYRYLSWYQQKPGKAPKLLIYLASTLTSGVPSRFSGSGSGTDFTLTISSLQPEDFATYYCQSNFGTASTTYYNTFGGGTKLTVLGGGGGSGGGGSGGGGSGGGGSEVQLVESGGGLVQPGGSLTLSCAASGFSFSGFYYMCWVRQAPGKGLEWIGCIDTGDGTTYYASWAKGRFTISRDNSKNTVYLQMNSLRAEDTAVYYCARDAAYGGYAYPAHGMDLWGPGTLVTVSS	binding result (human IL-17E [17]): no binding (tested: about 20000 ng/mL); binding result (human IL-17D [18]): no binding (tested: about 500000 ng/mL); binding result (human IL-17F [19]): no binding (tested: about 20000 ng/mL); binding result (human IL-17B [20]): no binding (tested: about 100000 ng/mL); binding result (human IL-17C [21]): no binding (tested: about 100000 ng/mL)
